Two substances from article PMC9953004, “Scandium-44 Radiolabeled Peptide and Peptidomimetic Conjugates Targeting Neuropilin-1 Co-Receptor as Potential Tools for Cancer Diagnosis and Anti-Angiogenic Therapy” (Biomedicines, 2023) can be followed below.

This assay has as its target Recombinant human NRP-1 (neuropilin-1 co-receptor) (human) (UniProt O14786). In words: ELISA; competitive; recombinant human NRP-1 coated on a 96-well plate (200 ng/well, overnight, 4 °C), blocked with 0.5% BSA in PBS; 50 µL compound in PBS (100, 50, 25, 12.5, 6.75 µM) plus 50 µL (400 ng/mL) human (bt)-VEGF-A165 in PBS with 4 µg/mL heparin; 2 h at room temperature; streptavidin-HRP, chemiluminescence; IC50 by nonlinear regression, mean ± SD of three experiments. Background: ELISA stands for enzyme-linked immunosorbent assay.

Chain of Recombinant human NRP-1 (neuropilin-1 co-receptor) (human) (O14786 22-856): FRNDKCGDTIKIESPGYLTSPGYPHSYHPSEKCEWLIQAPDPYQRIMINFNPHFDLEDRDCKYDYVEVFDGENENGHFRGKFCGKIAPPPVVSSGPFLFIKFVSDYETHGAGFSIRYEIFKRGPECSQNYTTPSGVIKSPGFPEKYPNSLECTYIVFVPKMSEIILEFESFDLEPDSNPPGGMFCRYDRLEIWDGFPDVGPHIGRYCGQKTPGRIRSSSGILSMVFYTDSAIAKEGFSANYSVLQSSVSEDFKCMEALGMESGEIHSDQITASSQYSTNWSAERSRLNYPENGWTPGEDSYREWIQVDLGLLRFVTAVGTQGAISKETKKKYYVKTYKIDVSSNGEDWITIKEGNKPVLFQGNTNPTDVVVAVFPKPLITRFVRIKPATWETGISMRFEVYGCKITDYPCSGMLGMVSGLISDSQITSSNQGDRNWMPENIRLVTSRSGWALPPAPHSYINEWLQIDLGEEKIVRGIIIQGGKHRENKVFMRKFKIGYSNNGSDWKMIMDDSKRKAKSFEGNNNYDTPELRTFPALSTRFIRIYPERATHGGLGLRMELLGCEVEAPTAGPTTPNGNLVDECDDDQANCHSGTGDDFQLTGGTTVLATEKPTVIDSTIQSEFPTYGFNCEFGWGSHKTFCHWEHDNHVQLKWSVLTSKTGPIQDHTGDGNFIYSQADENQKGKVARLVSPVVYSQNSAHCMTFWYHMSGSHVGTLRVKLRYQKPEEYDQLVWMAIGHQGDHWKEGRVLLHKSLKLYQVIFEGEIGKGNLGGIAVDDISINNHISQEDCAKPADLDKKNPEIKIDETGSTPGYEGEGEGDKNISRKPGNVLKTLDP

The term IC50 denotes the concentration that inhibits the measured activity by half. ^DR7A-^DLys(DOTA-Ga) (peptide): the 50% inhibitory concentration (IC50) was greater than 100 µM.

As for ^DR7A-^DLys(DOTA-Sc) (peptide), the IC50 is greater than 100 µM.
